Peptide exchange yield data for 30 molecules are collected here from patent US20200155602A1 (IMMATICS BIOTECHNOLOGIES, published 2020).

Where no end group is shown, it is not given here. [ ]: non-standard residue; d: D form. pS = N[C@@H](COP(=O)(O)O)C(=O)O Some results are limits rather than exact numbers.

The target of the assay is T1, HLA-A*02:01 (human).
T1 construct: Peptide-receptive HLA-A*02:01 monomer obtained by UV cleavage of a UV-sensitive ligand; captured on streptavidin plates; also called peptide-receptive MHC molecules; MHC class I
As to the kind of experiment: UV-ligand exchange, anti-b2m ELISA; grade of peptide exchange yield (>10% = +; >20% = ++; >50 = +++; >75% = ++++). An excerpt: Candidate peptides for T cell based therapies according to the present invention were further tested for their MHC binding capacity (affinity). The individual peptide-MHC complexes were produced by UV-ligand exchange, where a UV-sensitive peptide is cleaved upon UV-irradiation, and exchanged with the peptide of interest as analyzed. Only peptide candidates that can effectively bind and stabilize the peptide-receptive MHC molecules prevent dissociation of the MHC complexes. To determine the yield of the exchange reaction, an ELISA was performed based on the detection of the light chain (β2m) of stabilized MHC complexes. The assay was performed as generally described in Rodenko et al. (Rodenko et al., 2006).
96 well MAXISorp plates (NUNC) were coated over night with 2 ug/ml streptavidin in PBS at room temperature, washed 4× and blocked for 1 h at 37° C. in 2% BSA containing blocking buffer. Refolded HLA-A*02:01/MLA-001 monomers served as standards, covering the range of 15-500 ng/ml. Peptide-MHC monomers of the UV-exchange reaction were diluted 100-fold in blocking buffer. Samples were incubated for 1 h at 37° C., washed four times, incubated with 2 ug/ml HRP conjugated anti-β2m for 1 h at 37° C., washed again and detected with TMB solution that is stopped with […]. Absorption was measured at 450 nm. Candidate peptides that show a high exchange yield (preferably higher than 50%, most preferred higher than 75%) are generally preferred for a generation and production of antibodies or fragments thereof, and/or T cell receptors or fragments thereof, as they show sufficient avidity to the MHC molecules and prevent dissociation of the MHC complexes.
For orientation: In an ELISA, binding on a coated surface is turned into a signal by an enzyme label.
As for GLHQDFPSVVL, the peptide exchange yield lay in the range of 50 to 75%.

With KILEMDDPRA, the peptide exchange yield lay within 20 to 50%.

ILFDEVLTFA displayed a peptide exchange yield greater than 75%.

Consider FLFPAFLTA, for which the peptide exchange yield is greater than 75%.

Molecule QLLQYVYNL yielded a peptide exchange yield greater than 75%.

As to TLLSEIAEL, the peptide exchange yield is greater than 75%.

Regarding ALWGFFPVLL, the peptide exchange yield was greater than 75%.

Molecule AQLNIGNVLPV showed a peptide exchange yield greater than 75%.

ALPEPSPAA: the peptide exchange yield fell in the range of 50 to 75%.

For ALASAPTSV, the peptide exchange yield is greater than 75%.

As to QLIEKITQV, the peptide exchange yield lay within 50 to 75%.

LMAPAPSTV displayed a peptide exchange yield of 50 to 75%.

YIDPYKLLPL yielded a peptide exchange yield of 50 to 75%.

Molecule GLYGIKDDVFL gave a peptide exchange yield greater than 75%.

ALMDEINFMKM: the peptide exchange yield is greater than 75%.

Consider SLRAFLMPI, for which the peptide exchange yield fell in the range of 20 to 50%.

VLAENPDIFAV came in with a peptide exchange yield of 50 to 75%.

On to SLQERQVFL, for which the peptide exchange yield fell in the range of 50 to 75%.

In turn, ALMAGCIQEA had a peptide exchange yield greater than 75%.

TLNDGVVVQV returned a peptide exchange yield greater than 75%.

SLFPYVVLI gave a peptide exchange yield greater than 75%.

In turn, AQLNLIWQL yielded a peptide exchange yield greater than 75%.

As to ALEEANADLEV, the peptide exchange yield is 50 to 75%.

The molecule KILE[pS]LFV[pS]L [KILEJLFVJL] had a peptide exchange yield of 50 to 75%.

The molecule VLYGDVEEL returned a peptide exchange yield of 50 to 75%.

As for MLFENMGAYTV, the peptide exchange yield was greater than 75%.

SLDGNPLAV showed a peptide exchange yield greater than 75%.

YVMESMTYL: the peptide exchange yield was greater than 75%.

In the case of STASAITPSV, the peptide exchange yield lay within 20 to 50%.

As to VLDEGLTSV, the peptide exchange yield is greater than 75%.
